Measurements taken from PMC6086869, “Accelerated pharmaceutical protein development with integrated cell free expression, purification, and bioconjugation” (Scientific Reports, 2018).

B1: His6-hCNTF (purified human ciliary neurotrophic factor used as standard) (natural protein, UniProt P26441 1-200, looked up)
chain: MAFTEHSPLTPHRRDLCSRSIWLARKIRSDLTALTESYVKHQGLNKNINLDSADGMPVASTDQWSELTEAERLQENLQAYRTFHVLLARLLEDQQVHFTPTEGDFHQAIHTLLLQVAAFAYQIEELMILLEYKIPRNEADGMPINVGDGGLFEKKLWGLKVLQELSQWTVRSIHDLRFISSHQTGIPARGSHYIANNKKM
notes: human ciliary neurotrophic factor, codon optimised gene, plasmid pOPINF-CNTF (Itkonen et al. 2014); also called purified hCNTF; purified His6-hCNTF; source: E. coli Rosetta 2 (DE3) pLysS, purified (Ni-IDA resin, size exclusion chromatography)

Legend:
[1] = target: Peptide 3 (NpuDnaEC16 capture peptide with ANP photocleavable residue); experiment: pull-down; peptide 3 immobilised by its His6 on HisPur Ni-NTA magnetic beads; hCNTF-NpuDnaE(ΔC16) in BYL or HeLa CFPS matrix, overnight, room temperature; captured share from Western blots of the matrix before and after capture; the capture is followed by protein trans splicing, which ligates hCNTF covalently to the peptide's C-terminal stretch
[2] = target: the molecule itself; experiment: SDS-PAGE without β-mercaptoethanol in the loading buffer, Western blot; purified hCNTF standard; anti-hCNTF polyclonal antibody for detection

Molecule	amount of hCNTF bound to the beads [1] [μg/mg beads]	binding result [2]
hCNTF-NpuDnaE(ΔC16) synthesised in the tobacco BY-2 lysate (BYL) cell free system (from UniProt P26441 1-200)	0.42	
hCNTF-NpuDnaE(ΔC16) synthesised in the HeLa cell free system (from UniProt P26441 1-200)	1.14	
B1		binds
